In the RNAGym collection of RNA variant scans (doi:10.7554/elife.90254) one finds self-cleavage data, which are given here for 167 variants.

To fix the notation:
B1: OR4K15 (parent)
chain: GUUAACGGUCAUAGGCCAUGGAAACUAGGAGCACCAUUUCGCUGCCAGUGAAGAAAUGAACAAAGAAAAUCUGGGCCAGGCAGGCAUCAAAAGAAAUAGUCUUGCGCUCAACCAGAAAGUCUGUAAUCAUUUUAAGGGUA

Variants of B1 are the subject of this data set. The data set is described as follows: self-cleavage, relative activity (ratio to wild type); higher = more cleavage; in vitro, sequencing; the parent is a self-cleaving ribozyme.
U43C U139A: the self-cleavage is 1.3.

With C45G U131C, the self-cleavage came out at 0.41. For A47U A111G the value was 0.04; for U43C A86G, 1.32; for C46A A52G, 1.25. Then G48A A110G, with 0.12. For U43C A90U, the self-cleavage came out at 1.83. As to U43C U130C, the self-cleavage is 0.47. For U43C A51G the value was 1.14; for A47G A63U, 1.03; for G48A G73A, 0.22. Then A47U A117C, with 0.24; and G48A U108A, with 0.01; and A47C U120C, with 1. Turning to A47C U120A, the self-cleavage was 2.24. For A47U A78C the value was 0.08; for A47U A78G, 0.17; for G48A U102A, 1.1. Then A47U A114U, with 0.06. Then G48A, with 1.44; and G48C, with 1.46. Take G48U: the self-cleavage was found to be 1.61. For C45U A60G, the self-cleavage was 1.29. For U43G A51G the value was 2.35. As to U43G A51U, the self-cleavage is 2.16. Regarding U49A A60G, the self-cleavage turned out to be 1.32. For C46U U127C the value was 0.86. For C45G A55G, the self-cleavage is 1.73.

As to U43C U97G, the self-cleavage came to 1.6. As for C45U U108A, the self-cleavage turned out to be 0.01. Then G44C U102C, with 2.81; and A47G G138A, with 1.31. Regarding C45A A98U, the self-cleavage came to 1.6. Consider A47G A116C, for which the self-cleavage worked out at 0.03. In the case of A47G A116G, the self-cleavage turned out to be 0.35. For U43G A66G, the self-cleavage was 1.69.

With G44A U131C, the self-cleavage came out at 1.53. Take A47U U122C: the self-cleavage was 0.67. For the variant U43C U100C, the self-cleavage came out at 2.35. As to C45U U49G, the self-cleavage is 1.93.

On to U43C A63C, for which the self-cleavage was 2.53. For C46U A56G the value was 1.12. Then A47U A60G, with 0.42.

Consider U43C C85U, for which the self-cleavage was 1.32. Turning to U43C U127C, the self-cleavage turned out to be 0.89. For A47G A52G the value was 0.87; for A47G A52U, 1.73.

Regarding A47G A52C, the self-cleavage is 0.5. For C45U U120C the value was 1.06; for C45U A114G, 0.75; for C45U A114U, 0.13. Consider C46A A91G, for which the self-cleavage was determined as 0.95. Then A47G A90U, with 0.8. For G44A A82U the value was 0.23. For the variant A47U U133C, the self-cleavage is 0.97. As for U43C U87A, the self-cleavage turned out to be 1.94.

As to U43C U87C, the self-cleavage came out at 0.35.

In the case of C46A A60U, the self-cleavage was determined as 1.27. Consider G44U A64G, for which the self-cleavage is 1.19. As to A47U A135C, the self-cleavage is 1.32. A47G A64G: the self-cleavage turned out to be 1.17.

In the case of U49A A51G, the self-cleavage is 1.02. For A47C U108C the value was 0.02.

With G44U A95G, the self-cleavage is 1.73. For C45U U122G, the self-cleavage stood at 2.74. A47U U131C: the self-cleavage turned out to be 0.54.

For C46U U87C, the self-cleavage was 1.68. As to C45A U127C, the self-cleavage came to 0.26. Then G48A U130C, with 0.82. Then A47G U102A, with 0.78; and A47G U102C, with 1.25; and A47G U102G, with 0.41. Consider A47U A126C, for which the self-cleavage was 0.72.

Take A47U A68G: the self-cleavage turned out to be 0.48. As for U43C A110G, the self-cleavage came to 0.15. Then G44A A95G, with 1.76; and A47G C112U, with 0.01. As to U49A A78U, the self-cleavage stood at 0.33. Consider C45U G119A, for which the self-cleavage stood at 1.99. A47U A66U: the self-cleavage was found to be 0.99.

As for A47C A68G, the self-cleavage is 0.55.

Consider U49A A63G, for which the self-cleavage came to 1.46. On to U43C A126C, for which the self-cleavage was determined as 1.95. For U43C A126G, the self-cleavage amounted to 0.73. Turning to G44A U97C, the self-cleavage stood at 0.83. Turning to G48A A92U, the self-cleavage stood at 1.62.

Consider G48A A92G, for which the self-cleavage was 2.02.

Consider A47C A129G, for which the self-cleavage is 0.74. Then A47G U120A, with 1.21.

Regarding A47G A62G, the self-cleavage turned out to be 0.63. For C46A A118U the value was 0.26; for A47G A110U, 1.15. For C45A the value was 1.6; for C45U, 1.72; for C45G, 1.37.

C45U A140G: the self-cleavage stood at 1.42.

A47U A82G: the self-cleavage was 0.21. Turning to A47U A90G, the self-cleavage came to 0.72. For A47C A67G the value was 0.84; for U43C A135G, 2.01. For U43C A135U the value was 0.71. For A47U U102A the value was 0.45; for A47U U102G, 0.28; for U43C A54G, 1.4. With U43C A54U, the self-cleavage came out at 0.85. For the variant U43C A47G, the self-cleavage amounted to 0.98. For U43C C107U the value was 0.02; for C46U A69U, 1.84; for A47G A51G, 0.9. For C46U A51U the value was 0.64. For the variant U43C A118U, the self-cleavage amounted to 0.87. Turning to U43C A118C, the self-cleavage was 1.4. As for C46U U139C, the self-cleavage is 2.16.

In the case of C46U U139A, the self-cleavage was determined as 1.41. Turning to A47G C105A, the self-cleavage is 0.07. In the case of C45A A129G, the self-cleavage is 0.87. Then A47G A68G, with 1.23; and A47G A68U, with 1.17. Then A47G A86U, with 2.98; and G44A U108C, with 0.01. For the variant G48A A126U, the self-cleavage was determined as 1.9.

In the case of G48A A126G, the self-cleavage was 1.15.

Turning to A47G A96G, the self-cleavage was found to be 1.18. Consider U43C A95U, for which the self-cleavage was found to be 0.49.

For A47G A135G, the self-cleavage turned out to be 1.27. Regarding U43C U70C, the self-cleavage stood at 0.83. In the case of U43C U70G, the self-cleavage came out at 1.28. On to A47G U87C, for which the self-cleavage came to 0.42.

On to G48A A59U, for which the self-cleavage is 0.86.

Regarding G48A A59G, the self-cleavage turned out to be 1.25. For A47G U139A, the self-cleavage amounted to 1.4. Then A47G U139C, with 1.45; and A47U A69G, with 0.73; and U43C U122A, with 1.34. For U43C U122C, the self-cleavage amounted to 0.81. A47G A59G: the self-cleavage amounted to 0.86.

Regarding C46U A116G, the self-cleavage turned out to be 1.37.

Take U43C A55G: the self-cleavage is 1.07. For A47U the value was 0.72; for A47C, 0.88; for A47G, 0.96. For G44C A117G the value was 1.69; for U43C C71A, 0.32; for A47C U49G, 1.78. For A47C U49C the value was 1.24; for U43C C112U, 0. Take U43C A82G: the self-cleavage came to 0.36. As to G48C A67G, the self-cleavage came to 1.37. On to C46U A59G, for which the self-cleavage amounted to 1.81. Turning to A47G A129G, the self-cleavage is 0.64. For A47U U108C the value was 0.01. For U49A A62U the value was 1.92.

For C46U U122A, the self-cleavage amounted to 1.22. For A47U A94G, the self-cleavage amounted to 1.22.

Turning to U43C G74C, the self-cleavage was 0.23. In the case of A47G A98U, the self-cleavage amounted to 0.85. Consider A47G A98G, for which the self-cleavage turned out to be 0.3. Then U43C A92G, with 1.24; and A47G U131A, with 0.62. For A47G U131C the value was 0.71; for U49A A64G, 1.2. G48A U49C: the self-cleavage was found to be 1.73. For A47G U72C the value was 0.35; for A47G U72A, 0.09; for A47G U97A, 1.21. Take A47G U97C: the self-cleavage is 1.08. In the case of A47U A54G, the self-cleavage was found to be 0.67.
